The values below come from US11912777 (NANJING LEADS BIOLABS, dated 2024).

For orientation: Kd means the free concentration of one partner at which half of the binding sites on the other are occupied at equilibrium, for simple one-to-one binding. One may read the koff as the rate constant with which the complex falls apart. What is called kon is the rate constant with which the complex forms. A lower kon goes with slow association. In general, IC50 refers to the concentration needed to halve the response being measured.

Experiment [1] deals with T1, E13A.
T1 construct: also called human TNFR2 E13A
T1 receptor: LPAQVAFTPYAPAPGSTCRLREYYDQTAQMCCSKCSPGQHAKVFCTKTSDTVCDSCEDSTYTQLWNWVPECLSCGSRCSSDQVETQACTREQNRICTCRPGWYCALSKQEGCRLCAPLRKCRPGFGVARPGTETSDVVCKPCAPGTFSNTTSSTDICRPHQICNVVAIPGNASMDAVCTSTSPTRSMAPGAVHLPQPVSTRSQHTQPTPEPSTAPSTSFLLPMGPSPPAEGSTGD
Description: ELISA on coated human TNFR2 mutant E13A; lower panel. (ELISA stands for enzyme-linked immunosorbent assay.)

In experiment [2] the target is T2, human HVEM (Sino Biological, Cat #10334-H03H) (human, UniProt Q92956 39-202).
T2 construct: Bought reagent coated on ELISA plates
T2 sequence (looked up): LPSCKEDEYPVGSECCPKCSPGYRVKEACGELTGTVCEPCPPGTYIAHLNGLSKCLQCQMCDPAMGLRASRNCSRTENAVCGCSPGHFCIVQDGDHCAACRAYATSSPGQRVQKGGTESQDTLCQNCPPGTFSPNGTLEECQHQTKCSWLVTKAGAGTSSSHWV
Briefly: ELISA, protein coated.

The target in experiment [3] is T3, human CD27 (Sino Biological, Cat #10039-H31H) (human, UniProt P26842 20-192).
T3 construct: Bought reagent coated on ELISA plates
T3 sequence (looked up): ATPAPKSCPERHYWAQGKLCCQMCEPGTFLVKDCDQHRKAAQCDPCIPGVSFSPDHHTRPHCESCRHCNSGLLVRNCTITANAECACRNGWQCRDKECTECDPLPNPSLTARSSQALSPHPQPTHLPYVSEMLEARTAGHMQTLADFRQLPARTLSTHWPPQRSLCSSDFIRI
Description: ELISA, protein coated.

The target of experiment [4] is T4, human GITR (Sino Biological, Cat #13643-H08H) (human, UniProt Q9Y5U5 26-161).
T4 construct: Bought reagent coated on ELISA plates
T4 sequence (looked up): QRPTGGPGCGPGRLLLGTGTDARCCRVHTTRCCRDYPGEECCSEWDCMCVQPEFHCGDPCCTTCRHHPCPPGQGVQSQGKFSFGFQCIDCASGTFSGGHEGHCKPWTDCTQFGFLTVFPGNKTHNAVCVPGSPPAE
Briefly: ELISA, protein coated.

Experiment [5] deals with T5, human CD40 (Sino Biological, Cat #10774-H08H) (human, UniProt P25942 21-193).
T5 construct: Bought reagent coated on ELISA plates
Description: ELISA, protein coated.

For experiment [6], the target named is T6, human OX40 (Sino Biological, Cat #10481-H08H) (human, UniProt P43489 29-216).
T6 construct: Bought reagent coated on ELISA plates
T6 sequence (looked up): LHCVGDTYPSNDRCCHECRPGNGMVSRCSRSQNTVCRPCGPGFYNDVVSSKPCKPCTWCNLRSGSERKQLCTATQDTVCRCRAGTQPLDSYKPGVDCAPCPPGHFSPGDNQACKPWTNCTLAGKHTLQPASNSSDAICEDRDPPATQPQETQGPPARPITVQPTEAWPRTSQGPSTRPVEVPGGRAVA
Briefly: ELISA, protein coated.

For experiment [7], the target named is T7, human 4-1BB (Sino Biological, Cat #10041-H08H) (human, UniProt Q07011 24-186).
T7 construct: Bought reagent coated on ELISA plates
Description: ELISA, protein coated.

Experiment [8] addresses T8, S16A.
T8 construct: also called human TNFR2 S16A
T8 receptor: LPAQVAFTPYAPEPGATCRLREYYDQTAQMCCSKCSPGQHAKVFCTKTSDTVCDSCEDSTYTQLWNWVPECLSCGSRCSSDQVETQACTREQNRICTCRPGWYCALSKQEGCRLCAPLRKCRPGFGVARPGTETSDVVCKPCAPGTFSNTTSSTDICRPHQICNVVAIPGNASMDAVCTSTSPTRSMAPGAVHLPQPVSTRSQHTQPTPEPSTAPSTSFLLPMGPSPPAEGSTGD
Description: ELISA on coated human TNFR2 mutant S16A; lower panel.

Experiment [9] concerns the target T9, His-tagged human TNFR2 (Sino Biological, Cat #10417-H08H) (human, UniProt P20333 23-257).
T9 construct: Bought reagent, analyte in BLI; also called recombinant human TNFR2; not shown: His tag
T9 sequence (looked up): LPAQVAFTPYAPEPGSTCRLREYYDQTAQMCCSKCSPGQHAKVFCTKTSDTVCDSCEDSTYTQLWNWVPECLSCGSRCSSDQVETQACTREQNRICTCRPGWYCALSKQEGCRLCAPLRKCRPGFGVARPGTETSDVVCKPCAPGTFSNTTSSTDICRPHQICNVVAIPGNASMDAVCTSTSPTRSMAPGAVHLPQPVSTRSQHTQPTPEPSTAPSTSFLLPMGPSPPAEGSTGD
Description: BLI (Octet RED 96), antibody on Fc capture tips, His-tagged TNFR2 as analyte, 1:1 global fit. Background: In BLI a coated tip is dipped into the sample, and binding shifts an interference pattern.

The target of experiment [10] is T10, human TNFR2 expressed on the cell surface of 293T cells (human, UniProt P20333 23-461).
T10 construct: also called HuTNFR2; human TNFR2 on cell surface
T10 sequence: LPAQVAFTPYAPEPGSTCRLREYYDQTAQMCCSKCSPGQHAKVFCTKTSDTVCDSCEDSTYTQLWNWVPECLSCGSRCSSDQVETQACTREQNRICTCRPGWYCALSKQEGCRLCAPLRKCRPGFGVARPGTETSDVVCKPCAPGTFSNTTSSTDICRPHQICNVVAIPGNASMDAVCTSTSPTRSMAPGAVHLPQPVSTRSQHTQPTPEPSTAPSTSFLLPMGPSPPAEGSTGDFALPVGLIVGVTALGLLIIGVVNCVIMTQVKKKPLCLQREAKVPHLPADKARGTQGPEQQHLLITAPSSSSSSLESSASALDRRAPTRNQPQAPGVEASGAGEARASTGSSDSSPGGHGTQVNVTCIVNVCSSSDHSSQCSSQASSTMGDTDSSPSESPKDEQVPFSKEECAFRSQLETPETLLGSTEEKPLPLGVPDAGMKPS
Briefly: flow cytometry, blocking of Biotin-TNF-alpha binding to human TNFR2 on 293T cells; right panel; unit from the axis. For orientation: Flow cytometry measures light scatter and fluorescence of single cells or particles in a stream.

T5 sequence (P25942 21-193 limits assumed): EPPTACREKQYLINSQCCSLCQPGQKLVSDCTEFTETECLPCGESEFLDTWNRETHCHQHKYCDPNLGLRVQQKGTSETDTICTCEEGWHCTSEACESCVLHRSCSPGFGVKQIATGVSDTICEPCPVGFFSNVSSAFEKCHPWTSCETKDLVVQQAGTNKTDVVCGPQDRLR

B1: humanized antibody hu3-E (Hu3-H3/Hu3-L1) (antibody, human IgG1, kappa, V domains shown)
VH: QIQLVQSGAEVKKPGASVKVSCKASGYTFTTYGMSWVRQAPGQGLEWMGWIHTYSGVPTYADDFKGRFAFTLDTSTSTAYMELRSLRSDDTAVYYCARGLYGVDYWGQGTLVTVSS
VL: EIVMTQSPATLSLSPGERATLSCKASENVVTYVSWYQQKPGQAPRLLIYGASNRYTGIPARFSGSGSATDFTLTISSLQPEDFAVYYCGQSYTYPYTFGQGTKLEIKR
notes: Humanized form of 43B7A4, human IgG1/kappa
Regarding B1, the binding result was “binds” in experiment [1]; “no binding (tested: starting concentration 0.4 µg/mL)” in experiment [2]; “no binding (tested: starting concentration 0.4 µg/mL)” in experiment [3]; “no binding (tested: starting concentration 0.4 µg/mL)” in experiment [4]; “no binding (tested: starting concentration 0.4 µg/mL)” in [5]; “no binding (tested: starting concentration 0.4 µg/mL)” in experiment [6]. Besides, the binding result is on record as “no binding (tested: starting concentration 0.4 µg/mL)” in experiment [7] and “binds” in experiment [8]. Besides, in experiment [9], the dissociation constant (Kd) was found to be 5.32 nM. For the same molecule, in experiment [9], the koff worked out at 0.00192 s⁻¹. The kon in [9] was 361000 M⁻¹ s⁻¹. Also, the IC50 in experiment [10] came out at 11 nM.
